# Source: patent publication US20160200831A1 (Sanofi, published 2016)
# Where two headings read alike, the source gives them in different places.
# B1: C45 (antibody, mouse IgG2b, V domains shown)
# VH: QVQLQQSGVELVRPGTSVKVSCKASGYAFTNYLIEWIKQRPGQGLEWIGVIHPGSGVTNYNEKFKGKAILTADKSSSTAYMQLSSLTSDDSAVYFCARDYYGSSHGLMDYWGQGTSVTVSS
# VL: DIKMTQSPSSMYASLGERVTITCKASQDINSYLSWFQQKPGKSPKTLIYRANRLVDGVPSRFSGSGSGQDYSLTISSLEYEDMGIYYCLQYDEFPRTFGGGTKLEIK
# notes: mouse IgG2b; also called mC45; C45 (IgG2b)
# B2: A44-hv5 (antibody, V domains shown)
# VH: EMTLKESGPTLVKPTQTLSLTCSVTGDSMTQGYWNWIRKFPGKALEYMGYITYSGSTYYNPSLKGRISITRNTSKNQYYLTLSSVTTVDTATYYCARWHYGSPYYFDYWGQGTTLTVSS
# VL: DIKMTQSPSSLSASVGDRVTITCKASQDINSYLSWLQQKPGKSPKTLIYRAQRSVEGVPSRFSGSGSGQDYSLTISSLQPEDLGIYYCLQYDEFPPTFGGGTKLEIK
# notes: humanized A44, HEK293; constant regions as for A44-hv1; also called LC2 x HC2b; variant 5
# B3: A44-hv1 (antibody, V domains shown)
# VH: EMTLKESGPTLVKPTQTLSLTCSVTGDSMTNGYWNWIRKFPGKALEYMGYITYSGSTYYNPSLKGRISITRNTSKNQYYLTLSSVTTVDTATYYCARWHYGSPYYFDYWGQGTTLTVSS
# VL: DIKMTQSPSSLSASVGDRVTITCKASQDINSYLSWLQQKPGKSPKTLIYRANRSVDGVPSRFSGSGSGQDYSLTISSLQPEDLGIYYCLQYDEFPPTFGGGTKLEIK
# notes: humanized A44, HEK293; also called LC1a x HC1a; variant 1
# B4: A44-hv12 (antibody, V domains shown)
# VH: QMTLKESGPTLVKPTQTLSLTCSVSGDSMTNGYWNWIRQFPGKALEYMGYITYSGSTYYNPSLKGRITITRDTSKNQYYLTLSSVTTVDTATYYCARWHYGSPYYFDYWGQGTTLTVSS
# VL: DIKMTQSPSSLSASVGDRVTITCKASQDINSYLSWLQQKPGKSPKTLIYRAQRSVEGVPSRFSGSGSGQDYSLTISSLQPEDLATYYCLQYDEFPPTFGGGTKLEIK
# notes: humanized A44, HEK293; constant regions as for A44-hv1; also called LC4 x HC3; variant 12
# B5: A44-hv4 (antibody, V domains shown)
# VH: EMTLKESGPTLVKPTQTLSLTCSVTGDSMTQGYWNWIRKFPGKALEYMGYITYSGSTYYNPSLKGRISITRNTSKNQYYLTLSSVTTVDTATYYCARWHYGSPYYFDYWGQGTTLTVSS
# VL: DIKMTQSPSSLSASVGDRVTITCKASQDINSYLSWLQQKPGKSPKTLIYRANRSVDGVPSRFSGSGSGQDYSLTISSLQPEDLGIYYCLQYDEFPPTFGGGTKLEIK
# notes: humanized A44, HEK293; constant regions as for A44-hv1; also called LC1a x HC2b; variant 4
# B6: A44-hv6 (antibody, V domains shown)
# VH: QMTLKESGPTLVKPTQTLSLTCSVSGDSMTNGYWNWIRQFPGKALEYMGYITYSGSTYYNPSLKGRITITRDTSKNQYYLTLSSVTTVDTATYYCARWHYGSPYYFDYWGQGTTLTVSS
# VL: DIKMTQSPSSLSASVGDRVTITCKASQDINSYLSWLQQKPGKSPKTLIYRANRSVDGVPSRFSGSGSGQDYSLTISSLQPEDLATYYCLQYDEFPPTFGGGTKLEIK
# notes: humanized A44, HEK293; constant regions as for A44-hv1; also called LC3 x HC3; variant 6
# B7: A44-hv9 (antibody, V domains shown)
# VH: QMQLQESGPGLVKPSETLSLTCTVSGDSMTNGYWNWIRQPPGKGLEYMGYITYSGSTYYNPSLKSRITISRDTSKNQYSLKLSSVTAADTAVYYCARWHYGSPYYFDYWGQGTLVTVSS
# VL: DIQMTQSPSSLSASVGDRVTITCKASQDINSYLSWLQQKPGKAPKTLIYRANRSVDGVPSRFSGSGSGQDYTFTISSLQPEDIATYYCLQYDEFPPTFGGGTKVEIK
# notes: humanized A44, HEK293; constant regions as for A44-hv1; also called LC5b x HC5b; variant 9
# B8: A44-hv14 (antibody, V domains shown)
# VH: QMQLQESGPGLVKPSETLSLTCTVSGDSMTNGYWNWIRQPPGKGLEYMGYITYSGSTYYNPSLKSRITISRDTSKNQYSLKLSSVTAADTAVYYCARWHYGSPYYFDYWGQGTLVTVSS
# VL: DIKMTQSPSSLSASVGDRVTITCKASQDINSYLSWLQQKPGKSPKTLIYRAQRSVEGVPSRFSGSGSGQDYSLTISSLQPEDLATYYCLQYDEFPPTFGGGTKLEIK
# notes: humanized A44, HEK293; constant regions as for A44-hv1; also called LC4 x HC5b; variant 14
# B9: A44-hv8 (antibody, V domains shown)
# VH: QVQLQESGPGLVKPSETLSLTCTVSGDSMTNGYWNWIRQPPGKGLEYMGYITYSGSTYYNPSLKSRITISRNTSKNQYSLKLSSVTAADTAVYYCARWHYGSPYYFDYWGQGTLVTVSS
# VL: DIQMTQSPSSLSASVGDRVTITCKASQDINSYLSWLQQKPGKAPKLLIYRANRSVDGVPSRFSGSGSGTDYTFTISSLQPEDIATYYCLQYDEFPPTFGGGTKVEIK
# Experiments:
# [1] = molecular target: T1, glycosylated human PAI-1 (active form) (human, UniProt P05121 24-402, glycosylated); assay: cell-based or functional assay
# T1 sequence (P05121 24-402 limits assumed): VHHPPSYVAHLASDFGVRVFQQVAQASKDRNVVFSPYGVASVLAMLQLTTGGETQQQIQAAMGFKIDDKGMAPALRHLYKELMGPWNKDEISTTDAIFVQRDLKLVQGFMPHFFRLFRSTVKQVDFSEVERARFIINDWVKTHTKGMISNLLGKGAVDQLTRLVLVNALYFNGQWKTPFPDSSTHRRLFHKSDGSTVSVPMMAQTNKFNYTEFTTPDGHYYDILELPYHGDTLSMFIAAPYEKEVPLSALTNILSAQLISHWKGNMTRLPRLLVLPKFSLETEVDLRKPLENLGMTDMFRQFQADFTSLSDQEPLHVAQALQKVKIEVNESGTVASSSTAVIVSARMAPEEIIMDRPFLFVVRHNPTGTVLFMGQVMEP
# [2] = molecular target: T2, human PAI-1 (human, UniProt P05121 24-402); assay: Biacore, hybridoma supernatant
# T2 construct: also used for endogenous PAI-1 of human plasma, liver lysate and lung fibroblasts; also called hPAI-1; hPAI
# T2 sequence (P05121 24-402 limits assumed): as above
# [3] = molecular target: T1, glycosylated human PAI-1 (active form); assay: cell-based or functional assay; remark: listed apart in the source
# [4] = molecular target: T3, cyno PAI-1 captured on immobilized human vitronectin (cynomolgus monkey; human, UniProt P04004 20-478, limits assumed); assay: Biacore, cPAI-1 on vitronectin chip, 1:1 model
# T3 construct: non-covalent complex formed on the chip; also called cPAI-1/Vn
# T3 sequence (chain, as listed by the source limits assumed, chain 1 of 2): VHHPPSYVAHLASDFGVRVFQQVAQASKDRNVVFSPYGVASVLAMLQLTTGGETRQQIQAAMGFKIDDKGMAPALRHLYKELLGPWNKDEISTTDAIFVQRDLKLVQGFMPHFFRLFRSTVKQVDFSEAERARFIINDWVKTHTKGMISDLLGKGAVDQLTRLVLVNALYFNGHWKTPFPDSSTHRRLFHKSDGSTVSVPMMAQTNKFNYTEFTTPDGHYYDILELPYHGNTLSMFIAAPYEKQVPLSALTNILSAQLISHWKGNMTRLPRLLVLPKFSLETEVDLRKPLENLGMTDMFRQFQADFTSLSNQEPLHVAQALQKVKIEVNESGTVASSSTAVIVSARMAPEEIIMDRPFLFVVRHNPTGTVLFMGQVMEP
# T3 sequence (P04004 20-478 limits assumed, chain 2 of 2): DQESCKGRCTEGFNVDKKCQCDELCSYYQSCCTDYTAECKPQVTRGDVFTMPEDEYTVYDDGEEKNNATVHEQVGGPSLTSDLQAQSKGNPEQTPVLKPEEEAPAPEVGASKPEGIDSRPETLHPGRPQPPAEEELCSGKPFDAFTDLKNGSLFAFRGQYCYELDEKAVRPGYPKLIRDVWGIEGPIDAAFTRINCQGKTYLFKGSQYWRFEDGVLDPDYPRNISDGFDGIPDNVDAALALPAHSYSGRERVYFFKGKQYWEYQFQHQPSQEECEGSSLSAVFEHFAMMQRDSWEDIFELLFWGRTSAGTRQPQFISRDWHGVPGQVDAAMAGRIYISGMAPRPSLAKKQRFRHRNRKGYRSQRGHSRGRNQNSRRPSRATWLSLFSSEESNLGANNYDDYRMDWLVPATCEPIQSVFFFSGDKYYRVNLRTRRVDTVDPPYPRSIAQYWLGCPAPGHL
# [5] = molecular target: T2, human PAI-1; assay: cell-based or functional assay
# [6] = molecular target: T4, human PAI-1 captured on immobilized human vitronectin (human, UniProt P04004 20-478); assay: Biacore, hPAI-1 on vitronectin chip, 1:1 model
# T4 construct: non-covalent complex formed on the chip or plate; also called PAI-1/Vn complex; Vn captured hPAI-1
# T4 sequence (chain, as listed by the source limits assumed, chain 1 of 2): as the sequence (P05121 24-402 limits assumed) above
# T4 sequence (P04004 20-478 limits assumed, chain 2 of 2): as the sequence (P04004 20-478 limits assumed, chain 2 of 2) above
# [7] = molecular target: T1, glycosylated human PAI-1 (active form); assay: cell-based or functional assay; remark: listed apart in the source
# [8] = molecular target: T3, cyno PAI-1 captured on immobilized …; assay: Biacore, cPAI-1 on vitronectin chip, two state reaction model
# [9] = molecular target: T3, cyno PAI-1 captured on immobilized …; assay: Biacore, cPAI-1 on vitronectin chip, two state reaction model (kd1)
# [10] = molecular target: T3, cyno PAI-1 captured on immobilized …; assay: Biacore, cPAI-1 on vitronectin chip, two state reaction model (ka1)
# [11] = molecular target: T1, glycosylated human PAI-1 (active form); assay: cell-based or functional assay; remark: listed apart in the source
# [12] = molecular target: T2, human PAI-1; assay: Biacore, mAb on anti-human IgG Fc chip, 1:1 model
# [13] = molecular target: T2, human PAI-1; assay: cell-based or functional assay; remark: listed apart in the source
# [14] = molecular target: T5, cynomolgus PAI-1 (cynomolgus monkey (Macaca fascicularis), UniProt P05121 24-402 (human entry)); assay: cell-based or functional assay
# [15] = molecular target: T5, cynomolgus PAI-1; assay: Biacore, mAb on anti-human IgG Fc chip / cyno PAI-1, 1:1 model
Binder,Kd [4] [pM],koff [4] [s⁻¹],kon [4] [M⁻¹ s⁻¹],Chromogenic Assay IC50 [5] [pM],Kd [6] [pM],koff [6] [s⁻¹],kon [6] [M⁻¹ s⁻¹],Plasminogen Activation IC50 [7] [pM],Plasminogen Activation Y50% [7] [%],Plasminogen Activation IC50 [11] [pM],Plasminogen Activation Y50% [11] [%],other results
B1,–,–,–,–,–,–,–,–,–,–,–,"Chromogenic Assays [1]: 0.5 nM; Plasmin Generation [1]: 10.6 nM; koff [2]: ≤ 0.0001 s⁻¹; plasmin generation, hepatic stellate cells, IC50abs [3]: 6500 pM; plasmin generation, hepatic stellate cells, Imax [3]: 97%"
B2,32.6,0.000111,3.4e+06,1110,10.2,2.76e-05,2.72e+06,–,–,–,–,–
B3,–,–,–,490,52.6,0.000555,1.1e+07,2080,58.5,3120,45,Kd [8]: 2450 pM; koff [9]: 0.00827 s⁻¹; kon [10]: 3.37e+06 M⁻¹ s⁻¹
B4,56.9,0.000235,4.26e+06,–,16.1,8.14e-05,5.15e+06,1990,76.7,–,–,"Kd [12]: 41.4 pM; koff [12]: 6.7e-05 s⁻¹; kon [12]: 1.62e+06 M⁻¹ s⁻¹; active PAI-1 by uPA-PAI-1 complex ELISA, hPAI-1 Standard, IC50 [13]: 114 pM; active PAI-1 by uPA-PAI-1 complex ELISA, hPAI-1 Standard, Y50% [13]: 53.5%; active PAI-1 by uPA-PAI-1 complex ELISA, hPlasma TH1782, IC50 [13]: 3.35 pM; active PAI-1 by uPA-PAI-1 complex ELISA, hPlasma TH1782, Y50% [13]: 37.7%; active PAI-1 by uPA-PAI-1 complex ELISA, Cyno PAI-1, IC50 [14]: 26.6 pM; active PAI-1 by uPA-PAI-1 complex ELISA, Cyno PAI-1, Y50% [14]: 53.5%; Kd [15]: 24.4 pM; koff [15]: 5.45e-05 s⁻¹; kon [15]: 2.24e+06 M⁻¹ s⁻¹"
B5,–,–,–,520,19.2,8.8e-05,4.59e+06,–,–,–,26,Kd [8]: 752 pM; koff [9]: 0.00017 s⁻¹; kon [10]: 226000 M⁻¹ s⁻¹
B6,5.01,2.51e-05,5.26e+06,820,13.3,5.68e-05,4.38e+06,–,–,1780,56.9,–
B7,21.5,0.000134,6.51e+06,860,17,0.000103,6.36e+06,1510,50.9,1900,46.5,–
B8,38.6,0.000213,5.86e+06,–,9.57,3.95e-05,4.06e+06,1820,61.2,–,–,"Kd [12]: 27 pM; koff [12]: 3.42e-05 s⁻¹; kon [12]: 1.25e+06 M⁻¹ s⁻¹; active PAI-1 by uPA-PAI-1 complex ELISA, hPAI-1 Standard, IC50 [13]: 56.3 pM; active PAI-1 by uPA-PAI-1 complex ELISA, hPAI-1 Standard, Y50% [13]: 52.5%; active PAI-1 by uPA-PAI-1 complex ELISA, hPlasma TH1782, IC50 [13]: 58.6 pM; active PAI-1 by uPA-PAI-1 complex ELISA, hPlasma TH1782, Y50% [13]: 73.9%; active PAI-1 by uPA-PAI-1 complex ELISA, Cyno PAI-1, IC50 [14]: 28.7 pM; active PAI-1 by uPA-PAI-1 complex ELISA, Cyno PAI-1, Y50% [14]: 52.5%; Kd [15]: 11.5 pM; koff [15]: 2.69e-05 s⁻¹; kon [15]: 2.32e+06 M⁻¹ s⁻¹"
B9,–,–,–,760,–,–,–,–,–,–,11,–
